Laboratory results as given in article PMC10397247.
Blank lines part the entries; values can stand above or below the binder they belong to.

Tests used:
[1] = target: T1, 4H2839-bA; assay: two-hybrid library CCNG1;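 also: natural log of median RNA to DNA barcode read ratio; higher means stronger binding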
T1 chain: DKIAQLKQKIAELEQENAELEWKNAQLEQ

[2] = target: T2, 4H2503-bA; assay: two-hybrid library CCNG1;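 also: natural log of median RNA to DNA barcode read ratio; higher means stronger binding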
T2 chain: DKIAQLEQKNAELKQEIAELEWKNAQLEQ

[3] = target: T3, 4H492-bA; assay: two-hybrid library CCNG1;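 also: natural log of median RNA to DNA barcode read ratio; higher means stronger binding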
T3 chain: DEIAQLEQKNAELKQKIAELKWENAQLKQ

[4] = target: T4, 4H3057-bA; assay: two-hybrid library CCNG1;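 also: natural log of median RNA to DNA barcode read ratio; higher means stronger binding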
T4 chain: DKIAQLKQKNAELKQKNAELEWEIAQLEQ

[5] = target: T5, 4H741-bA; assay: two-hybrid library CCNG1;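 also: natural log of median RNA to DNA barcode read ratio; higher means stronger binding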
T5 chain: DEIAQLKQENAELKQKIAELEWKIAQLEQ

[6] = target: T6, 4H477-bA; assay: two-hybrid library CCNG1;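 also: natural log of median RNA to DNA barcode read ratio; higher means stronger binding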
T6 chain: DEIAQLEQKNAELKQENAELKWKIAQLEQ

[7] = target: T7, 4H348-bA; assay: two-hybrid library CCNG1
T7 chain: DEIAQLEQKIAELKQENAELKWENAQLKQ

[8] = target: T8, 4H40-bA; assay: two-hybrid library CCNG1
T8 chain: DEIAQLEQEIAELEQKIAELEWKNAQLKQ

[9] = target: T9, 4H2438-bA; assay: two-hybrid library CCNG1
T9 chain: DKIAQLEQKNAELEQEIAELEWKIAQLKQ

[10] = target: T10, 4H2588-bA; assay: two-hybrid library CCNG1
T10 chain: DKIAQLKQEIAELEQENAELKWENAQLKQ

[11] = target: T11, 4H2692-bA; assay: two-hybrid library CCNG1
T11 chain: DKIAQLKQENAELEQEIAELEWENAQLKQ

[12] = target: T12, 4H2915-bA; assay: two-hybrid library CCNG1
T12 chain: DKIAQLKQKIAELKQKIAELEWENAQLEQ

[13] = target: T13, 4H319-bA; assay: two-hybrid library CCNG1
T13 chain: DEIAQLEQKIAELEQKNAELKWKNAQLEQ

[14] = target: T14, 4H2473-bA; assay: two-hybrid library CCNG1
T14 chain: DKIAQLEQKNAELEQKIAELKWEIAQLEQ

[15] = target: T15, 4H2223-bA; assay: two-hybrid library CCNG1
T15 chain: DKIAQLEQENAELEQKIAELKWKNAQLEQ

[16] = target: T16, 4H3277-bA; assay: two-hybrid library CCNG1
T16 chain: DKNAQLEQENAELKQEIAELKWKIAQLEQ

[17] = target: T17, 4H2717-bA; assay: two-hybrid library CCNG1
T17 chain: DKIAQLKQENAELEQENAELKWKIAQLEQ

[18] = target: T18, P9A-bS; assay: two-hybrid library CCNG1
T18 chain: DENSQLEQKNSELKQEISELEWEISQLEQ

[19] = target: T19, P2A-bS; assay: two-hybrid library CCNG1
T19 chain: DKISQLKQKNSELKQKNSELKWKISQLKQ

[20] = target: T20, P7A-bS; assay: two-hybrid library CCNG1
T20 chain: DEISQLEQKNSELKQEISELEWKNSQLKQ

[21] = target: T21, P6A-bS; assay: two-hybrid library CCNG1
T21 chain: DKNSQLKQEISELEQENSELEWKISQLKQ

[22] = target: T22, P4A-bS; assay: two-hybrid library CCNG1
T22 chain: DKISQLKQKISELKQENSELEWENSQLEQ

[23] = target: T23, P1A-bS; assay: two-hybrid library CCNG1
T23 chain: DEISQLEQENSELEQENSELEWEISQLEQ

[24] = target: T24, P5A-bS; assay: two-hybrid library CCNG1
T24 chain: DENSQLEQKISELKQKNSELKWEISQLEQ

[25] = target: T25, P8A-bS; assay: two-hybrid library CCNG1
T25 chain: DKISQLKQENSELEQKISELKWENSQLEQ

[26] = target: T26, P3A-bS; assay: two-hybrid library CCNG1
T26 chain: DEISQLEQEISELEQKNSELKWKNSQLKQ

[27] = target: T27, 4H2586-bH; assay: two-hybrid library CCNG1
T27 chain: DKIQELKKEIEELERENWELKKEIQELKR

[28] = target: T28, 4H855-bH; assay: two-hybrid library CCNG1
T28 chain: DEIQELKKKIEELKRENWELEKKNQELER

[29] = target: T29, 4H968-bH; assay: two-hybrid library CCNG1
T29 chain: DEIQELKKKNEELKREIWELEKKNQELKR

[30] = target: T30, 4H3427-bH; assay: two-hybrid library CCNG1
T30 chain: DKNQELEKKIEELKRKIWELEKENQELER

[31] = target: T31, 4H170-bH; assay: two-hybrid library CCNG1
T31 chain: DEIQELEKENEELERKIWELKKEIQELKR

[32] = target: T32, 4H1831-bH; assay: two-hybrid library CCNG1
T32 chain: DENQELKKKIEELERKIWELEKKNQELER

[33] = target: T33, 4H3926-bH; assay: two-hybrid library CCNG1
T33 chain: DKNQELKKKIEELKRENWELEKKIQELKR

[34] = target: T34, 4H780-bH; assay: two-hybrid library CCNG1
T34 chain: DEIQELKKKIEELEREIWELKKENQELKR

[35] = target: T35, 4H2702-bH; assay: two-hybrid library CCNG1
T35 chain: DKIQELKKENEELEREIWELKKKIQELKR

[36] = target: T36, 4H683-bH; assay: two-hybrid library CCNG1
T36 chain: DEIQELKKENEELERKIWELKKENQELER

[37] = target: T37, 4H3112-bH; assay: two-hybrid library CCNG1
T37 chain: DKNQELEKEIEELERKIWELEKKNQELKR

[38] = target: T38, 4H2627-bH; assay: two-hybrid library CCNG1
T38 chain: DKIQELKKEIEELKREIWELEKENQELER

[39] = target: T39, 4H575-bH; assay: two-hybrid library CCNG1
T39 chain: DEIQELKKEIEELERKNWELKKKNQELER

[40] = target: T40, 4H4073-bH; assay: two-hybrid library CCNG1
T40 chain: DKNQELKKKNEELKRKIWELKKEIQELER

[41] = target: T41, 4H2673-bH; assay: two-hybrid library CCNG1
T41 chain: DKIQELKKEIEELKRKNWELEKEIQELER

[42] = target: T42, 4H3010-bH; assay: two-hybrid library CCNG1
T42 chain: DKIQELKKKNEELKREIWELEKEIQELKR

[43] = target: T43, 4H346-bH; assay: two-hybrid library CCNG1
T43 chain: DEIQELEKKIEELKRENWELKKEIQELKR

[44] = target: T44, 4H918-bH; assay: two-hybrid library CCNG1
T44 chain: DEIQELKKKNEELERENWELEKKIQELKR

[45] = target: T45, 4H754-bH; assay: two-hybrid library CCNG1
T45 chain: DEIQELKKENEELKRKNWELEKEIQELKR

[46] = target: T46, 4H797-bH; assay: two-hybrid library CCNG1
T46 chain: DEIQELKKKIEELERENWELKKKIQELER

[47] = target: T47, 4H457-bH; assay: two-hybrid library CCNG1
T47 chain: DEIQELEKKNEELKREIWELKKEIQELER

[48] = target: T48, 4H953-bH; assay: two-hybrid library CCNG1
T48 chain: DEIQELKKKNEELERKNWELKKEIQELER

[49] = target: T49, 4H741-bN; assay: two-hybrid library CCNG1
T49 chain: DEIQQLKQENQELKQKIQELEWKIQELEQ

[50] = target: T50, 4H492-bN; assay: two-hybrid library CCNG1
T50 chain: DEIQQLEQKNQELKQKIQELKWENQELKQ

[51] = target: T51, 4H796-bA; assay: two-hybrid library CCNG1
T51 chain: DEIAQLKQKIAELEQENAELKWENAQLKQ

[52] = target: GCN2_T; assay: two-hybrid library CCmax
[53] = target: T52, 4H2600-AA; assay: two-hybrid library CCmax; conditions: mean of both orientations
T52 chain: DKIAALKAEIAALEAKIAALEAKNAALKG

[54] = target: T53, 4H2750-AA; assay: two-hybrid library CCmax; conditions: mean of both orientations
T53 chain: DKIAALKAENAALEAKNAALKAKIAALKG

[55] = target: 4H_GCN4; assay: two-hybrid library CCmax
Sequence of 4H_GCN4 (chain, as listed by the source): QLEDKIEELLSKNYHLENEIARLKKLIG

[56] = target: T54, 4H3365-AA; assay: two-hybrid library CCmax; conditions: mean of both orientations
T54 chain: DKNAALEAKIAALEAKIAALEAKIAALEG

[57] = target: T55, 4H535-AA; assay: two-hybrid library CCmax; conditions: mean of both orientations
T55 chain: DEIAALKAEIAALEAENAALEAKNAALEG

[58] = target: T56, 4H656-AA; assay: two-hybrid library CCmax
T56 chain: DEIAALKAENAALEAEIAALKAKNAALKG

[59] = target: T57, 4H3705-AA; assay: two-hybrid library CCmax; conditions: mean of both orientations
T57 chain: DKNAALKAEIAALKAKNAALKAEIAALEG

[60] = target: T58, 4H355-AA; assay: two-hybrid library CCmax; conditions: mean of both orientations
T58 chain: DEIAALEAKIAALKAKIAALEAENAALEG

[61] = target: T59, 4H2898-AA; assay: two-hybrid library CCmax; conditions: mean of both orientations
T59 chain: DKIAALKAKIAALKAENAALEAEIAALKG

[62] = target: T60, 4H465-AA; assay: two-hybrid library CCmax; conditions: mean of both orientations
T60 chain: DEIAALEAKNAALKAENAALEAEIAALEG

[63] = target: T61, 4H3020-AA; assay: two-hybrid library CCmax; conditions: mean of both orientations
T61 chain: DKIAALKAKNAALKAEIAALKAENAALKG

[64] = target: T62, 4H1802-AA; assay: two-hybrid library CCmax
T62 chain: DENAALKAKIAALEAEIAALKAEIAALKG

[65] = target: T63, 4H58-AA; assay: two-hybrid library CCmax; conditions: mean of both orientations
T63 chain: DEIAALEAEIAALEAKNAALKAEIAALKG

[66] = target: T64, 4H2721-AA; assay: two-hybrid library CCmax; conditions: mean of both orientations
T64 chain: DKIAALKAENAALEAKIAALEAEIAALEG

[67] = target: T65, 4H_APH; assay: two-hybrid library CCmax; conditions: mean of both orientations
T65 chain: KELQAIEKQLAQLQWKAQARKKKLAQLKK

[68] = target: T66, 4H895-AA; assay: two-hybrid library CCmax; conditions: mean of both orientations
T66 chain: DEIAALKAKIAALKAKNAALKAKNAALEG

[69] = target: T67, 4H486-AA; assay: two-hybrid library CCmax; conditions: mean of both orientations
T67 chain: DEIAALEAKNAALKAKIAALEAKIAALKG

[70] = target: T68, 4H3782-AA; assay: two-hybrid library CCmax; conditions: mean of both orientations
T68 chain: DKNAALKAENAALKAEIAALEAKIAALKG

[71] = target: T69, 4H_BCR; assay: two-hybrid library CCmax; conditions: mean of both orientations
T69 chain: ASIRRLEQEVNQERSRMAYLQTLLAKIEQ

[72] = target: T70, 4H3651-AA; assay: two-hybrid library CCmax; conditions: mean of both orientations
T70 chain: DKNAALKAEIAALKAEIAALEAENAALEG

interaction score [1]: -0.368
interaction score [2]: 1.47
interaction score [3]: 1.49
interaction score [4]: 0.223
interaction score [5]: 0.169
interaction score [6]: -1.47
interaction score [7]: -1.22
interaction score [8]: -1.46
interaction score [9]: 0.457
interaction score [10]: -0.336
interaction score [11]: -0.196
interaction score [12]: 0.32
interaction score [13]: -0.61
interaction score [14]: -0.247
interaction score [15]: 0.291
interaction score [16]: -0.571
interaction score [17]: -0.279
Binder: DKIAQLEQENAELEQKIAELKWKNAQLEQ [4H2223-bA]

interaction score [49]: -0.326
interaction score [23]: -1.07
interaction score [50]: -0.118
interaction score [51]: 0.0979
Binder: DEIQQLEQKNQELKQKIQELKWENQELKQ [4H492-bN]

interaction score [52]: -1.36
interaction score [53]: -0.95
interaction score [54]: -1.63
interaction score [55]: -1.26
interaction score [56]: -1.3
interaction score [57]: -1.73
interaction score [58]: -2.89
interaction score [59]: -1.42
interaction score [60]: -0.981
interaction score [61]: -1.81
interaction score [62]: -1.48
interaction score [63]: -1.81
interaction score [64]: 1.63
interaction score [65]: -1.15
interaction score [66]: -1.29
interaction score [67]: -1.86
interaction score [68]: -1.85
interaction score [69]: -1.28
interaction score [70]: -1.38
interaction score [71]: -1.68
interaction score [72]: -1.48
Binder: DENAALKAKIAALEAEIAALKAEIAALKG [4H1802-AA]

Continued, binder first:

Binder: DEISQLEQENSELEQENSELEWEISQLEQ [P1A-bS]
interaction score [18]: -1.08
interaction score [19]: 1.9
interaction score [20]: -1.96
interaction score [21]: 0.0466
interaction score [22]: -0.182
interaction score [23]: -0.982
interaction score [24]: -0.939
interaction score [25]: -0.899
interaction score [26]: -0.598

Binder: DEIQELEKENEELERKIWELKKEIQELKR [4H170-bH]
interaction score [27]: -1.02
interaction score [28]: -0.762
interaction score [29]: 1.47
interaction score [30]: 0.596
interaction score [31]: 0.761
interaction score [32]: -0.0127
interaction score [33]: 0.549
interaction score [34]: -0.492
interaction score [35]: 1.84
interaction score [36]: -0.173
interaction score [37]: 0.343
interaction score [38]: 0.774
interaction score [39]: -1.59
interaction score [40]: 1.14
interaction score [41]: -0.0221
interaction score [42]: 2.38
interaction score [43]: -0.205
interaction score [44]: 0.183
interaction score [45]: 1.02
interaction score [46]: 0.264
interaction score [47]: 1.82
interaction score [48]: 0.0231
